± gives the standard error. This sample holds only a part of the variants without activity.
B1: glmS ribozyme (parent)
chain: AUAAAAGCGCCAGAACUACAGAAAUGUAGUUGACGAGGAGGAGGUUUAUCGAAUUUUCGGCGGAUGCCUCCAAA

Experiments:
Details in all cases: with glucosamine-6-phosphate
glucosamine-6-phosphate [1] = variants of: B1; assay: self-cleavage kobs at 40 uM GlcN6P; higher = faster cleavage; RNA array
In short: (§1)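 Glucosamine-6-phosphate, from 40 μM to 10 mM in HEPES/KCl/Mg(OAc)2 buffer, was flowed over sequenced MiSeq chips carrying barcoded ribozyme variants transcribed in situ by E. coli RNA polymerase. A hybridised Cy3 probe tracked the variants at 37 °C as tiles were imaged over ~14 h. kobs, kcat and KM were obtained by fitting normalised per-tile medians to exponential decays and then applying weighted Michaelis–Menten fits across concentrations.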

glucosamine-6-phosphate [2] = variants of: B1; assay: self-cleavage kobs at 160 uM GlcN6P; higher = faster cleavage; RNA array
In short: as §1

glucosamine-6-phosphate [3] = variants of: B1; assay: self-cleavage kobs at 640 uM GlcN6P; higher = faster cleavage; RNA array
In short: as §1

glucosamine-6-phosphate [4] = variants of: B1; assay: self-cleavage kobs at 10000 uM GlcN6P; higher = faster cleavage; RNA array
In short: as §1

glucosamine-6-phosphate [5] = variants of: B1; assay: self-cleavage kobs at 2500 uM GlcN6P; higher = faster cleavage; RNA array
In short: as §1

| Variant | self-cleavage kobs at 40 uM GlcN6P (glucosamine-6-phosphate [1]) [s⁻¹] | self-cleavage kobs at 160 uM GlcN6P (glucosamine-6-phosphate [2]) [s⁻¹] | self-cleavage kobs at 640 uM GlcN6P (glucosamine-6-phosphate [3]) [s⁻¹] | self-cleavage kobs at 10000 uM GlcN6P (glucosamine-6-phosphate [4]) [s⁻¹] | self-cleavage kobs at 2500 uM GlcN6P (glucosamine-6-phosphate [5]) [s⁻¹] |
| --- | --- | --- | --- | --- | --- |
| A36G A42U | < 1e-05 | < 1e-05 | < 1e-05 | < 1e-05 |  |
| U54A C70G | 6.49e-05 ± 8.1e-06 | 6.78e-05 ± 1e-05 | 0.00033 ± 5.7e-05 | 0.000131 ± 1.5e-05 | 0.000176 ± 2.2e-05 |
| A52G G60C | < 1e-05 | < 1e-05 | < 1e-05 |  | < 1e-05 |
| U31C C70U | 0.000152 ± 1.5e-05 | 0.000343 ± 4.1e-05 | 0.000731 ± 6.7e-05 |  | 0.00284 ± 0.00074 |
| A6G G35U | < 1e-05 | < 1e-05 | < 1e-05 | < 1e-05 | < 1e-05 |
| G38A G41A U45C A52G |  | < 1e-05 | < 1e-05 |  |  |
| C8G C11G U30C C34G G44U G62A | < 1e-05 |  |  | < 1e-05 |  |
| A14U G35U U69G | 0.000295 ± 0.00012 |  |  | 6.56e-05 ± 1.9e-05 |  |
| C34A U56C G63A | < 1e-05 |  |  | < 1e-05 |  |
| G29U G43A G63A | < 1e-05 |  |  |  |  |
| C16A C34A G37U C50A C61A | 0.000276 ± 6.5e-05 |  |  | 0.000316 ± 6.4e-05 |  |
| G38A G43A | < 1e-05 |  | < 1e-05 | < 1e-05 |  |
| G38A G43U | < 1e-05 | < 1e-05 | < 1e-05 | < 1e-05 |  |
| A36C U56A |  | < 1e-05 | < 1e-05 |  | < 1e-05 |
| A6G A15G C71U | < 1e-05 |  |  |  |  |
| C8U A64U | < 1e-05 | < 1e-05 | < 1e-05 | < 1e-05 | < 1e-05 |
| A6U A12C A53U |  | < 1e-05 | 3.14e-05 ± 1.3e-05 |  | 4.17e-05 ± 1.6e-05 |
| A6U G35C G51C U65G | < 1e-05 |  |  |  |  |
| G37U G41C C70U | < 1e-05 |  |  |  |  |
| G59C G60A |  | < 1e-05 |  |  | < 1e-05 |
| C8U A39U | < 1e-05 | < 1e-05 |  |  | < 1e-05 |
| C10A G32A U47A | < 1e-05 |  |  |  |  |
| A15G G37C C58U | < 1e-05 |  |  |  |  |

| Variant | self-cleavage kobs at 40 uM GlcN6P (glucosamine-6-phosphate [1]) [s⁻¹] | self-cleavage kobs at 160 uM GlcN6P (glucosamine-6-phosphate [2]) [s⁻¹] | self-cleavage kobs at 640 uM GlcN6P (glucosamine-6-phosphate [3]) [s⁻¹] | self-cleavage kobs at 10000 uM GlcN6P (glucosamine-6-phosphate [4]) [s⁻¹] | self-cleavage kobs at 2500 uM GlcN6P (glucosamine-6-phosphate [5]) [s⁻¹] |
| --- | --- | --- | --- | --- | --- |
| G59C G62U | < 1e-05 | < 1e-05 |  | < 1e-05 |  |
| A53C G62A | < 1e-05 |  |  | < 1e-05 |  |
| G44C G62A | < 1e-05 | < 1e-05 | < 1e-05 | < 1e-05 | < 1e-05 |
| G29A U55C | 0.000113 ± 2.5e-05 | 9.66e-05 ± 2.7e-05 | 0.00146 ± 0.00032 | 0.00384 ± 0.00092 | 0.00194 ± 0.00056 |
| A42C G43C C68A C71A |  | < 1e-05 |  |  | < 1e-05 |
| A6C C11U | < 1e-05 | < 1e-05 | < 1e-05 |  |  |
| G29C G62U | < 1e-05 | < 1e-05 |  |  |  |
| G29C G62A | < 1e-05 |  | < 1e-05 |  |  |
| G7C U47G U56G G59U G60C | < 1e-05 |  |  |  |  |
| G41A A52G G59A | < 1e-05 | < 1e-05 | < 1e-05 |  |  |
| C34U A52G | < 1e-05 | < 1e-05 |  | < 1e-05 |  |
| A12C G41U | 5.28e-05 ± 7e-06 | 7.73e-05 ± 8.9e-06 | 0.00028 ± 6.1e-05 | 0.00129 ± 0.00013 | 0.00034 ± 6.3e-05 |
| A6G A12C U45G C58U G59C G62A C68G | < 1e-05 |  |  | < 1e-05 |  |
| C16U G60C C67A | < 1e-05 |  |  |  |  |
| C8A A52C | < 1e-05 | < 1e-05 | < 1e-05 | < 1e-05 |  |
| U45C G60C | < 1e-05 | < 1e-05 | < 1e-05 | < 1e-05 | < 1e-05 |
| G9A G13U C50G U57A | 0.000665 ± 0.00023 |  |  | 9.79e-05 ± 2e-05 |  |
| A33G U56A | < 1e-05 | < 1e-05 | < 1e-05 | < 1e-05 |  |
| A24U | 0.002 ± 0.0003 |  |  |  |  |
| G32A G44U | < 1e-05 |  | < 1e-05 |  |  |
| C34G C58G | < 1e-05 | < 1e-05 | < 1e-05 | < 1e-05 |  |
| G9U C11A A36G | < 1e-05 |  |  |  |  |
| G7C C50U | < 1e-05 | < 1e-05 | < 1e-05 |  | < 1e-05 |

From the supplement of paper PMC7125110
